Measurements published in patent US20200095589, “ENGINEERED DCAS9 WITH REDUCED TOXICITY AND ITS USE IN GENETIC CIRCUITS” (Massachusetts Institute of Technology, published 2020).

Target: dCas9*_HNH-L88 (ZFP fusion) (Streptococcus pyogenes / synthetic)
Test: cell_activity; E. coli; maximum reached at optimal 6 bp spacer; about a third of unmodified dCas9
Details: dCas9(R1335K), HNH deleted, 88 aa linker, C-terminal Zif268TS3
Method: A reporter system was developed to evaluate the impact of these modifications on the ability for dCas9 to repress the targeted promoter (FIGS. 13A-13F). The expression of the sgRNA and dCas9 are controlled using IPTG- and aTc-inducible promoters, respectively. All of these components are integrated into a single p15A plasmid backbone. The fold-repression is measured as the fluorescence from the output promoter in the absence of sgRNA inducer (0 mM IPTG), divided by the fluorescence when the sgRNA is expressed (1 mM IPTG). When the R1335K mutation is made (dCas9*), this completely abolishes repression as expected (FIG. 1C).
The ability for a zinc finger protein (ZFP) to recover nuclease activity was first tested. To this end, a variant of dCas9* described previously was built, where Zif268^TS3 is fused to the C-terminal end of dCas9* via a 58 amino acid linker (Bolukbasi M. F., et al., Nat. Methods, 2015 December; 12(12): 1150-56). The corresponding 12 bp operator recognized by Zif268^Ts3 was then placed upstream of the promoter, separated from the −35 position by a spacer (all promoter variants described are provided in TABLE 3). The orientation of the operator (forward and reverse) was initially tested with the forward yielding higher repression as previously observed (Bolukbasi M. F., et al., Nat. Methods, 2015 December; 12(12): 1150-56). […]

B1: sgRNA9 ; pZFP_S6 promoter (ssRNA ; dsDNA)
RNA: AUAAUACCCGUGUGACCCGUGUUUUAGAGCUAGAAAUAGCAAGUUAAAAUAAGGCUAGUCCGUUAUCAACUUGAAAAAGUGGCACCGAGUCGGUGCUUUUUUU
DNA 1: TCCGAATGACATGCGTCTCCGGTGTTGGAGCGACAGCCTTTACACCAACGGGTCACACGGGTATTATGCTAGC
DNA 2: GCTAGCATAATACCCGTGTGACCCGTTGGTGTAAAGGCTGTCGCTCCAACACCGGAGACGCATGTCATTCGGA
With B1 the activity was 28 fold repression.
